Reference: patent US20250009856A1, “METHODS FOR TREATING RESPIRATORY DISEASES” (MUCPharm Pty Ltd, priority 2021, published 2025)

B1: DNASE: enzyme hydrolysing phosphodiester bonds of dsDNA; marketed under the brand name Pulmozyme for cystic fibrosis sputa (protein, UniProt P24855 23-282, looked up)
Deoxyribonuclease-1: LKIAAFNIQTFGETKMSNATLVSYIVQILSRYDIALVQEVRDSHLTAVGKLLDNLNQDAPDTYHYVVSEPLGRNSYKERYLFVYRPDQVSAVDSYYYDDGCEPCGNDTFNREPAIVRFFSRFTEVREFAIVPLHAAPGDAVAEIDALYDVYLDVQEKWGLEDVMLMGDFNAGCSYVRPSQWSSIRLWTSPTFQWLIPDSADTTATPTHCAYDRIVVAGMLLRGAVVPDSALPFNFQAAYGLSDQLAQAISDHYPVEVMLK

What was measured:
[1] = test system: New Zealand white rabbits; experiment: Pilot study: safety of inhaled bromelain in rabbits; conditions: rabbit, in vivo
Source text: In this pilot study. […] Ten minutes waiting period was kept between Salbutamol administration and treatment. Each rabbit received one cumulative dose of bromelain using a nebulizer and a v-gel supraglottal airway device as below. The pilot study was divided into 2 experiments as follows:
Experiment 1: Two rabbits were used in the first bromelain aerosol administration experiment. The first rabbit received an aerosol of physiological saline solution (0.9% NaCl), the second rabbit received aerosolized bromelain 0.1 mg/mL (accumulative dose of 0.19 mg in 1.9 mL saline), over 16 min inhalation period (Table 1).
Experiment 2: Three rabbits were used in the second bromelain aerosol administration experiment. The first rabbit received an aerosol of physiological saline solution (0.9% NaCl), the second one received aerosolized low dose of bromelain 0.01 mg/mL (accumulative dose of 0.025 mg bromelain in 2.5 mL saline), the third rabbit received aerosolized high dose of bromelain 0.1 mg/mL (accumulative dose of 0.25 mg bromelain in 2.5 mL saline), over 11 min inhalation period.
Rabbits were euthanized 48 h post-treatment using IV Sodium pentobarbitone 100 mg/kg while animals were sedated using isoflurane.

[2] = Sputum flow speed after mixing with BromAc, DNase and combinations; conditions: BR 250 ug/ml, NAC 20 mg/ml where present, 1 hour, 37 deg C
Description: (§1) Artificial sputa was prepared following methodology with ingredients as in earlier experiments. To 1.5 ml of artificial sputa in a vial was added 0.5 ml of reagent containing the required bromelain, NAC, DNase and their combinations. Control vials included 0.5 ml of PBS only. The mixture was vortex mixed and incubated in a shaker water bath at 37 deg C. At the end of 1 hour, the samples were retrieved, vortex mixed and equilibrated to ambient room temperature before measuring dynamic viscosity and pipette flow.
(§2) Dynamic viscosity was determined using the capillary tube method as in earlier experiments, whilst the pipette flow was evaluated using a 0.5 ml pipette inclined at 60 deg angle. The pipette flow was calculated as shown below.
Pipette flow (€)=0.45 ml sputa/time to empty (sec).

[3] = Dynamic viscosity after mixing with BromAc, DNase and combinations; conditions: for Dynamic viscosity (¥): heads: BR(25 ug/ml), NAC(20 mg/ml), BR(250 ug/ml) + NAC(20 ug/ml)
Description: as §1, §2

Molecule | activities, food and drink intake, breathing [1] | Sputum flow speed (€) ([2]; plus DNASE 2.0 ug/ml) [mL/s] | Sputum flow speed (€) ([2]; plus DNASE 4.0 ug/ml) [mL/s] | Sputum flow speed (€) ([2]; plus DNASE 6.0 ug/ml) [mL/s] | Sputum flow speed (€) ([2]; plus DNASE 8.0 ug/ml) [mL/s] | Sputum flow speed (€) ([2]; plus DNASE 20 ug/ml) [mL/s] | Sputum flow speed (€) ([2]; plus DNASE 10. ug/ml) [mL/s] | effect on dynamic viscosity compared with other treatment groups ([3]; DNase 2-20 μg/ml) | Dynamic viscosity (¥) ([3]; plus DNASE 2.0 ug/ml) [cSt] | Dynamic viscosity (¥) ([3]; plus DNASE 4.0 ug/ml) [cSt] | Dynamic viscosity (¥) ([3]; plus DNASE 6.0 ug/ml) [cSt] | Dynamic viscosity (¥) ([3]; plus DNASE 8.0 ug/ml) [cSt] | Dynamic viscosity (¥) ([3]; plus DNASE 20 ug/ml) [cSt] | Dynamic viscosity (¥) ([3]; plus DNASE 10. ug/ml) [cSt]
Bromelain | normal |  |  |  |  |  |  |  |  |  |  |  |  | 
B1 |  | 0.0627 | 0.075 | 0.082 | 0.09 | 0.1125 | 0.1044 | less compared to all the other treatment groups | 1.64 | 1.60 | 1.57 | 1.514 | 1.379 | 1.472
